From patent US20180298361A1 (CHO PHARMA, published 2018)

Columns and labels:
[1] = biological target: T1, recombinant soluble FcγRIIIA (UniProt P08637 17-208, limits assumed); assay: ELISA; recombinant soluble FcγRIIIA coated on plate; the reference itself
T1 construct: also called FcγIIIA; FcTRIIIA
Method: (§1) Microtiter plate (Corning® 96 Well Clear Flat Bottom Polystyrene High Bind, #9018) was coated with 50 ng/well of recombinant soluble FcγRIIIA diluted in 50 mM Bicarbonate/carbonate coating buffer (pH 10) overnight at 4° C. The plate was then washed 3 times with PBST (0.05% Tween 20 in PBS) and blocked with 5% BSA in PBST for 1 h at room temperature. The binding activity of glycoengineered antibodies (Rtx G1-G16) was determined for serial eight dilutions, starting with concentration of 100 μg/m1 in 2% BSA/PBST in duplicates. The plate was incubated for 1 h at room temperature, and washed 3 times with PBST. Next, 100 μl of goat anti-human IgG conjugated to horseradish peroxidase (Jackson immune, #109-035-088) in 2% BSA/PBST was added per well and incubated for 30 min at room temperature. The plate was washed 5 times with PBST then 100 μL per well of TMB substrate (eBioscience, #00-4201-56) was added and the resulting plate was incubated in the dark 15 min at room temperature. The absorbance value was determined at 450 nm in an ELISA reader (Molecular Devices Corporation, Sunnyvale, Calif., USA).

[2] = biological target: T1, recombinant soluble FcγRIIIA; assay: ELISA; recombinant soluble FcγRIIIA coated on plate, antibody titrated, anti-human IgG-HRP detection
Method: as §1

[3] = biological target: T1, recombinant soluble FcγRIIIA; assay: ELISA; recombinant soluble FcγRIIIA coated on plate; against commercial Rituximab
Method: as §1

T1 sequence (P08637 17-208 limits assumed): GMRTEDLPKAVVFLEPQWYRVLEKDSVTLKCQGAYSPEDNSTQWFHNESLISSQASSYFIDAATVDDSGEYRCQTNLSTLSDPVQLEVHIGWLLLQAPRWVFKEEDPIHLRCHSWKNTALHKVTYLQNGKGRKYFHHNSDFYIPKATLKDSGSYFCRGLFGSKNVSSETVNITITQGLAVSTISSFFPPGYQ

Binder	EC50 improvement Folds [1] [fold]	EC50 [2] [µg/mL]	Maxi binding (A450 nm) [2] [A450 nm]	EC50 improvement Folds [3] [fold]
Commercial Rituximab (antibody, human IgG1, kappa, heterogeneous Fc N-glycans at N297: core-fucosylated biantennary complex type oligosaccharides carrying 0-2 galactose (G0F, G1F, G2F), DrugBank DB00073; also called non-modified Rituximab; original Rituximab) heavy: not shown light: QIVLSQSPAILSASPGEKVTMTCRASSSVSYIHWFQQKPGSSPKPWIYATNLASGVPVRFSGSGSGTSYSLTISRVEAEDAATYYCQQWTSNPPTFGGGTKLEIKRTVAAPSVFIFPPSDEQLKSGTASVVCLLNNFYPREAKVQWKVDNALQSGNSQESVTEQDSKDSTYSLSSTLTLSKADYEKHKVYACEVTHQGLSSPVTKSFNRGEC	1	1.04	1.2	–
Rtx-G3 (antibody, human IgG1, kappa, homogeneous non-fucosylated N-glycan G3 (hybrid type; structure in FIG. 15) at Asn-297, also called glycoengineered Rituximab G3; hybrid type glycoform) heavy: not shown light: QIVLSQSPAILSASPGEKVTMTCRASSSVSYIHWFQQKPGSSPKPWIYATNLASGVPVRFSGSGSGTSYSLTISRVEAEDAATYYCQQWTSNPPTFGGGTKLEIKRTVAAPSVFIFPPSDEQLKSGTASVVCLLNNFYPREAKVQWKVDNALQSGNSQESVTEQDSKDSTYSLSSTLTLSKADYEKHKVYACEVTHQGLSSPVTKSFNRGEC	–	0.32	1.3	3.2
Rtx-G4 (antibody, human IgG1, kappa, homogeneous non-fucosylated N-glycan G4 (hybrid type; structure in FIG. 15) at Asn-297, also called glycoengineered Rituximab G4; hybrid type glycoform) heavy: not shown light: QIVLSQSPAILSASPGEKVTMTCRASSSVSYIHWFQQKPGSSPKPWIYATNLASGVPVRFSGSGSGTSYSLTISRVEAEDAATYYCQQWTSNPPTFGGGTKLEIKRTVAAPSVFIFPPSDEQLKSGTASVVCLLNNFYPREAKVQWKVDNALQSGNSQESVTEQDSKDSTYSLSSTLTLSKADYEKHKVYACEVTHQGLSSPVTKSFNRGEC	–	0.394	1.2	2.7
Rtx-G5 (antibody, human IgG1, kappa, homogeneous non-fucosylated N-glycan G5 (tri-antennary complex type with terminal galactose residues) at Asn-297, also called glycoengineered Rituximab G5; tri-antennary complex type glycoform) heavy: not shown light: QIVLSQSPAILSASPGEKVTMTCRASSSVSYIHWFQQKPGSSPKPWIYATNLASGVPVRFSGSGSGTSYSLTISRVEAEDAATYYCQQWTSNPPTFGGGTKLEIKRTVAAPSVFIFPPSDEQLKSGTASVVCLLNNFYPREAKVQWKVDNALQSGNSQESVTEQDSKDSTYSLSSTLTLSKADYEKHKVYACEVTHQGLSSPVTKSFNRGEC	–	0.031	2.6	35
Rtx-G6 (antibody, human IgG1, kappa, homogeneous non-fucosylated N-glycan G6 (tri-antennary complex type with terminal alpha-2,6 sialic acids) at Asn-297, also called glycoengineered Rituximab G6; tri-antennary complex type glycoform) heavy: not shown light: QIVLSQSPAILSASPGEKVTMTCRASSSVSYIHWFQQKPGSSPKPWIYATNLASGVPVRFSGSGSGTSYSLTISRVEAEDAATYYCQQWTSNPPTFGGGTKLEIKRTVAAPSVFIFPPSDEQLKSGTASVVCLLNNFYPREAKVQWKVDNALQSGNSQESVTEQDSKDSTYSLSSTLTLSKADYEKHKVYACEVTHQGLSSPVTKSFNRGEC	–	0.032	2.8	34
Rtx-G7 (antibody, human IgG1, kappa, homogeneous non-fucosylated N-glycan G7 (bi-antennary complex type with terminal di-galactose) at Asn-297, also called glycoengineered Rituximab G7; bi-antennary complex type glycoform) heavy: not shown light: QIVLSQSPAILSASPGEKVTMTCRASSSVSYIHWFQQKPGSSPKPWIYATNLASGVPVRFSGSGSGTSYSLTISRVEAEDAATYYCQQWTSNPPTFGGGTKLEIKRTVAAPSVFIFPPSDEQLKSGTASVVCLLNNFYPREAKVQWKVDNALQSGNSQESVTEQDSKDSTYSLSSTLTLSKADYEKHKVYACEVTHQGLSSPVTKSFNRGEC	–	0.031	2.5	35
Rtx-G8 (antibody, human IgG1, kappa, homogeneous non-fucosylated N-glycan G8 (bi-antennary complex type with bisected GlcNAc and terminal di-galactose) at Asn-297, also called glycoengineered Rituximab G8; bi-antennary complex type glycoform) heavy: not shown light: QIVLSQSPAILSASPGEKVTMTCRASSSVSYIHWFQQKPGSSPKPWIYATNLASGVPVRFSGSGSGTSYSLTISRVEAEDAATYYCQQWTSNPPTFGGGTKLEIKRTVAAPSVFIFPPSDEQLKSGTASVVCLLNNFYPREAKVQWKVDNALQSGNSQESVTEQDSKDSTYSLSSTLTLSKADYEKHKVYACEVTHQGLSSPVTKSFNRGEC	–	0.034	2.3	32
Rtx-G9 (antibody, human IgG1, kappa, homogeneous N-glycan G9 without core fucose (bi-antennary complex type with alpha 1,2 fucose on one of the two terminal galactose) at Asn-297, also called glycoengineered Rituximab G9; bi-antennary complex type glycoform) heavy: not shown light: QIVLSQSPAILSASPGEKVTMTCRASSSVSYIHWFQQKPGSSPKPWIYATNLASGVPVRFSGSGSGTSYSLTISRVEAEDAATYYCQQWTSNPPTFGGGTKLEIKRTVAAPSVFIFPPSDEQLKSGTASVVCLLNNFYPREAKVQWKVDNALQSGNSQESVTEQDSKDSTYSLSSTLTLSKADYEKHKVYACEVTHQGLSSPVTKSFNRGEC	–	0.061	2.4	17
